Results reported in IntAct's records for PubMed 22668317.

B1: LPS-assembly protein LptD (Escherichia coli (strain K12)), P31554 (parent)
chain: MKKRIPTLLATMIATALYSQQGLAADLASQCMLGVPSYDRPLVQGDTNDLPVTINADHAKGDYPDDAVFTGSVDIMQGNSRLQADEVQLHQKEAPGQPEPVRTVDALGNVHYDDNQVILKGPKGWANLNTKDTNVWEGDYQMVGRQGRGKADLMKQRGENRYTILDNGSFTSCLPGSDTWSVVGSEIIHDREEQVAEIWNARFKVGPVPIFYSPYLQLPVGDKRRSGFLIPNAKYTTTNYFEFYLPYYWNIAPNMDATITPHYMHRRGNIMWENEFRYLSQAGAGLMELDYLPSDKVYEDEHPNDDSSRRWLFYWNHSGVMDQVWRFNVDYTKVSDPSYFNDFDNKYGSSTDGYATQKFSVGYAVQNFNATVSTKQFQVFSEQNTSSYSAEPQLDVNYYQNDVGPFDTRIYGQAVHFVNTRDDMPEATRVHLEPTINLPLSNNWGSINTEAKLLATHYQQTNLDWYNSRNTTKLDESVNRVMPQFKVDGKMVFERDMEMLAPGYTQTLEPRAQYLYVPYRDQSDIYNYDSSLLQSDYSGLFRDRTYGGLDRIASANQVTTGVTSRIYDDAAVERFNISVGQIYYFTESRTGDDNITWENDDKTGSLVWAGDTYWRISERWGLRGGIQYDTRLDNVATSNSSIEYRRDEDRLVQLNYRYASPEYIQATLPKYYSTAEQYKNGISQVGAVASWPIADRWSIVGAYYYDTNANKQADSMLGVQYSSCCYAIRVGYERKLNGWDNDKQHAVYDNAIGFNIELRGLSSNYGLGTQEMLRSNILPYQNTL
partner: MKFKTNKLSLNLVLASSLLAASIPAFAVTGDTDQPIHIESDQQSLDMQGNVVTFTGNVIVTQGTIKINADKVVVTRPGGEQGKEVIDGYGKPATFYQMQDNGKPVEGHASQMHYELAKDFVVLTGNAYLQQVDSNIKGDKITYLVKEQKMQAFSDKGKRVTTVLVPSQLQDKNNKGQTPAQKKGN

Variants of: B1
Conditions: with lpta_ecoli lptA

Effect of a mutation on the interaction, disrupting interaction:
C31S;C725S
C31S;C173S
C724S;C725S
